Data on four proteins can be found in patent US11491212.

The labels stand for the following.
B1: FIXa-D203N/F205T/R318Y (protein)
chain 1: not shown
chain 2: not shown
B2: FIXa-D203N/F205T/R338A (protein)
chain 1: not shown
chain 2: not shown
B3: FIXa-D203N/F205T/R338E/R403E (protein)
chain 1: not shown
chain 2: not shown
B4: FIXa-D104N/K106S/R318Y/R338E/E410N (protein)
chain 1: not shown
chain 2: not shown

Several values for one entry are separate records, joined by “and”; a condition that tells them apart may be missing. Equal entries are not always repeated.

The target of this series is Factor X (FX), P00742.
Chain of Factor X (FX), P00742 (P00742 whole entry, looked up): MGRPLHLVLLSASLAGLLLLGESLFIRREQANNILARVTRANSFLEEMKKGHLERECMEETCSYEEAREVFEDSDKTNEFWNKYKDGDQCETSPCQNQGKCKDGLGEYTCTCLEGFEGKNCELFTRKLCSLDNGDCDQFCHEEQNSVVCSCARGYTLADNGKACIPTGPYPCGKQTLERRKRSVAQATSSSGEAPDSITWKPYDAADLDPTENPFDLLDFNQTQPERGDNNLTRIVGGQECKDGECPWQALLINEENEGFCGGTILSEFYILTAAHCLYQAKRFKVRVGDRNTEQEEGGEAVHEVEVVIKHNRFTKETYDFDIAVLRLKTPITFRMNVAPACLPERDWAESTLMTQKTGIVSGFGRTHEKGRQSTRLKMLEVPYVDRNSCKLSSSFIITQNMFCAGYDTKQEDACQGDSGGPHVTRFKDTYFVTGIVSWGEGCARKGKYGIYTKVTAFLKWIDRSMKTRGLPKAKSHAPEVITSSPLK
As for B1, the KM came out at 0.0475 µM; the KM for FX activation by FIXa in the Xase complex (FVIIIa/PC-PS/Ca2+), fluorogenic Spectrafluor FXa assay came to 0.0475 µM; the kcat was found to be 0.9 s⁻¹.

Consider B2, for which the KM was determined as 0.0385 µM; the KM for FX activation by FIXa in the Xase complex (FVIIIa/PC-PS/Ca2+), fluorogenic Spectrafluor FXa assay stood at 0.0385 µM; the kcat is 2.3 s⁻¹.

For B3, the KM was 0.0511 µM; the KM for FX activation by FIXa in the Xase complex (FVIIIa/PC-PS/Ca2+), fluorogenic Spectrafluor FXa assay is 0.0511 µM; the kcat came to 0.9 s⁻¹.

Consider B4, for which the “% of WT kcat/KM” value was 581% and 564%; the KM was determined as 0.0189 µM; the KM for FX activation by FIXa in the Xase complex (FVIIIa/PC-PS/Ca2+), fluorogenic Spectrafluor FXa assay came to 0.0189 µM; the kcat worked out at 4.8 s⁻¹.

The KM is the concentration of substrate that gives half-maximal velocity. The kcat is the number of substrate molecules converted per active site and unit of time at saturation.
